What was measured:
[1] = molecular target: soluble recombinant human CD14 (rHu-LAIT) (human) (UniProt P08571); experiment: cell-based or functional assay
[2] = molecular target: soluble recombinant bovine CD14 (rBo-LAIT) (bovine) (UniProt Q95122); experiment: cell-based or functional assay
Sequence of UniProt Q95122 (Q95122 21-373 S209T limits assumed): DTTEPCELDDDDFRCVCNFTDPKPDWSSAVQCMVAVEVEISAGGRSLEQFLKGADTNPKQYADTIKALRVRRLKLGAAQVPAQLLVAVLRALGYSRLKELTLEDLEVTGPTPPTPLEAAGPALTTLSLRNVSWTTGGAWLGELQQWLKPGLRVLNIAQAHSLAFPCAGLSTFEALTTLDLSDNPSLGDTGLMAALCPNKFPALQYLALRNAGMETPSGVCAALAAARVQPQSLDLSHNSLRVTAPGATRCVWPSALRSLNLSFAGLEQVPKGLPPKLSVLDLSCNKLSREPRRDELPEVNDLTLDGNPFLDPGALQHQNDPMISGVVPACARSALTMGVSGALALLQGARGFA

Sequence of UniProt P08571 (P08571 20-345 C187Y limits assumed): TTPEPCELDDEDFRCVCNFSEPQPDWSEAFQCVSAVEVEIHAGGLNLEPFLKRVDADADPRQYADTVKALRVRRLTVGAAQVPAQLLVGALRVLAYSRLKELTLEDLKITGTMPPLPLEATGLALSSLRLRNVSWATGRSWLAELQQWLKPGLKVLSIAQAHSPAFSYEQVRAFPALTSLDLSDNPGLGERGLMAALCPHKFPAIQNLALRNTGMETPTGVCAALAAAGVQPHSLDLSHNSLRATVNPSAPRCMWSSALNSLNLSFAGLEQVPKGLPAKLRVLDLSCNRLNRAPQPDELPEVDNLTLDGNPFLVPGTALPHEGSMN

- inhibition of B cell activation (3H-TdR uptake, percent of response without mAb) [1]: < 15%
- inhibition of B cell activation (3H-TdR uptake, percent of response without mAb) [2]: < 15%
- inhibition of induction of mIg+ 70Z/3 cells (flow cytometry) [2]: < 15%
Substance: IgG2b isotype non-specific mAb OX40 (antibody)
